Results from patent publication US20230043813A1, “METHODS FOR TARGETED CELL DEPLETION” (The Regents of the University of California, priority 2019, published 2023).

Experiments:
[1] = system: GFP or RFP expression in E. coli MG1655; assay: E. coli CRISPRi GFP/RFP repression assay; type: cell-based; details: 7-amino acid TEV cleavage site (ENLYFQ/S) as linker; active TEV vs dTEV
Protocol: Assays were performed using methods like those described by Oakes et al. (2016).
Endpoint Assay: Cells were picked in biological triplicate into 96 well plates containing 500 μL EZ MOPS plus Carb and CM. Plates were grown in 37° C. shakers for twelve hours. Next, cells were diluted 1:1000 in 500 μL EZ MOPS plus Carb, CM, IPTG and aTc. Two hundred nM aTc was used to induce Cas9-CPs or ProCas9s and 50 μM IPTG levels was used to induce the proteases in a 2 mL deep well blocks and shaken at 750 rpm at 37° C. After an eight-twelve-hour induction and growth period, 20 μL of cells were added to 80 μL of water and put into a 96-well microplate reader (Tecan M1000) at 37° C. and read immediately. Each well was measured for optical density at 600 nm and GFP or RFP fluorescence. GFP expression was normalized by dividing it with OD600. In the case of the time course assays, 150 μL of the 1:1000 dilution was used and placed into a black walled clear bottom plate (3631-Corning) and directly into the Tecan M1000 for a 130× 600 s kinetic cycle of reading. For E. coli single cell analysis, cells from the endpoint time course were run on a Sony SH800 to capture 100,000 events per sample.

[2] = system: GFP reporter in HEK-RT1 cells; assay: rapid mammalian genome editing reporter assay (HEK-RT1, GFP disruption); type: cell-based, human
Description: To establish a rapid and quantitative way to reliably assess genome editing efficiency from various CRISPR-Cas constructs in mammalian cells, a fluorescence-based reporter assay was built. […] To quantify this effect, HEK293T cells were stably transduced with a retroviral vector (LMP-Pten.1524) constitutively expressing GFP (Fellmann et al., 2013), and established monoclonal derivatives.
Specifically, inducible monoclonal HEK293T-based genome editing reporter cells, referred to as “HEK-RT1,” were established in a two-step procedure. In the first step, puromycin resistant monoclonal HEK-RT3-4 reporter cells were generated (Park et al., 2018). In brief, HEK293T human embryonic kidney cells were transduced at low-copy with the amphotropic pseudotyped RT3GEPIR-Ren.713 retroviral vector (Fellmann et al., 2013), comprising an all-in-one Tet-On system enabling doxycycline-controlled GFP expression. After puromycin (2.0 μg/ml) selection of transduced HEK239 Ts, 36 clones were isolated and individually assessed for i) growth characteristics, ii) homogeneous morphology, iii) sharp fluorescence peaks of doxycycline (1 μg/ml) inducible GFP expression, iv) relatively low fluorescence intensity to favor clones with single-copy reporter integration, and v) high transfectability.
Since HEK-RT3-4 are puromycin resistant, in the second step, monoclonal HEK-RT1 and analogous sister reporter cell lines were derived by transient transfection of HEK-RT3-4 cells with a pair of vectors encoding Cas9 and guide RNAs targeting puromycin (sgPuro5, sgPuro6), followed by identification of monoclonal derivatives that are puromycin sensitive. In total, eight clones were isolated and individually assessed for i) growth characteristics, ii) homogeneous morphology, iii) doxycycline (1 μg/ml) inducible and reversible GFP fluorescence, and v) puromycin and hygromycin B sensitivity. […] The HEK-RT1 cell line was chosen as rapid mammalian genome editing reporter system for all further assays.
A guide RNA targeting the GFP fluorescence reporter (sgGFP9) was compared to a non-targeting control (sgNT). […] GFP expression in HEK-RT1 reporter cells was induced for 24-48 hour using doxycycline (1 μg/ml; Sigma-Aldrich), at the indicated days post-editing.

[3] = system: PCSK9 locus; assay: editing at the endogenous PCSK9 locus (T7E1 assay, TIDE); type: cell-based, human; details: guide sgPCSK9-4, WNV protease vs dTEV; A549 and HAP1
Protocol: Unless otherwise noted, error bars indicate the standard deviation of triplicates, and significance was assessed by comparing samples to their respective controls using unpaired, two-tailed t tests (alpha=0.05). Genome editing quantification using TIDE was carried out as recommended (Brinkman et al., 2014). In brief, indels ranging from −10 to +10 nucleotides were quantified. Parental cells were used as reference for normalization. When reporting TIDE editing efficiencies, only indels with p values <0.01 in at least one replicate were considered true.

Molecule | GFP repression activity with TEV protease [1] | genome editing ([2]; stable expression of WNV protease, out to 8 days) | genome editing efficiency after transient protease transfection ([2]; stably integrated ProCas9, ZIKV, WNV proteases, mTagBFP2-positive cells) | genome editing ([2]; stably transduced WNV protease (FIG. 4F)) | protease-sensitive editing at the PCSK9 locus (T7E1) [3]
CP199: Cas9 circular permutant, new start site aa 199 (SEQ ID NO:44); linker varies by experiment (protein) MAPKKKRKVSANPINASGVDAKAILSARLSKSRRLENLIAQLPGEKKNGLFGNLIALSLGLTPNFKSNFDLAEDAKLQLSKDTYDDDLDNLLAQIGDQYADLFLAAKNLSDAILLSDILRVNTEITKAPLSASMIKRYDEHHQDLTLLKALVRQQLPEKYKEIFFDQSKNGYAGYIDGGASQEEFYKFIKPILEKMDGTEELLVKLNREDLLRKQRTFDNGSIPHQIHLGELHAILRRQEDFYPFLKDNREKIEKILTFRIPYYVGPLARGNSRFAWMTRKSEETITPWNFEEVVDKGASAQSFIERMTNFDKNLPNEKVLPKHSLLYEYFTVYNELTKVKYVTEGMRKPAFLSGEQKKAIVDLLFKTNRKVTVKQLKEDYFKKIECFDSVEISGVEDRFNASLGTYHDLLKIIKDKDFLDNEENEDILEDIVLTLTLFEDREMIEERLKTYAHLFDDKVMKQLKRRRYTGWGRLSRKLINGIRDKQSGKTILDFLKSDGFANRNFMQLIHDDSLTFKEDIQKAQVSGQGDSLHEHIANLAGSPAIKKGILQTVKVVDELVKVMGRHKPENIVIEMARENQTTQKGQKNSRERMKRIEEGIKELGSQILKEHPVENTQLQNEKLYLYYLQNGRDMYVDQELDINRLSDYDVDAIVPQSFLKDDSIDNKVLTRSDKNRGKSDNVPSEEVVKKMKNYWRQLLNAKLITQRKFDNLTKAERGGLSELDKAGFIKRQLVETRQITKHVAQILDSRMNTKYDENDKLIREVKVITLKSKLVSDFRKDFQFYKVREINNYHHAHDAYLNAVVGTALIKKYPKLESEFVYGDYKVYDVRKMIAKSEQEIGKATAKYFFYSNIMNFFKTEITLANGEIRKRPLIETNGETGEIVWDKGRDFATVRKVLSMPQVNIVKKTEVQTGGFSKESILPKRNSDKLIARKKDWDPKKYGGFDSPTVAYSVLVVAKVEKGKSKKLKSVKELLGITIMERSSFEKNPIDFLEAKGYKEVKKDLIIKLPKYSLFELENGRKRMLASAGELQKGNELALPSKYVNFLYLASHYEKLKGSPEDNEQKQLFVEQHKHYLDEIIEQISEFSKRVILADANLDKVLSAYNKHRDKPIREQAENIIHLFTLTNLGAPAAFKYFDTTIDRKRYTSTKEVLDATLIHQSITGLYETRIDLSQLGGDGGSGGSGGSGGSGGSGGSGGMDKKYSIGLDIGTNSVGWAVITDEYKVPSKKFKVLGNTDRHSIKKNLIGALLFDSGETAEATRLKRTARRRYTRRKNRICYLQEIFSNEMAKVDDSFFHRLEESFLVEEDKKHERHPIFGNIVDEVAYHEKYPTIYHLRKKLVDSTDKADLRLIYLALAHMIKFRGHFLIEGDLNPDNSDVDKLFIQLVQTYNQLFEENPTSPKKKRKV | switched from completely off to fully on | – | – | – | –
EF1a-ProCas9Flavi: ProCas9Flavi expressed from the strong full-length EF1a promoter, stably integrated lentiviral vector (protein) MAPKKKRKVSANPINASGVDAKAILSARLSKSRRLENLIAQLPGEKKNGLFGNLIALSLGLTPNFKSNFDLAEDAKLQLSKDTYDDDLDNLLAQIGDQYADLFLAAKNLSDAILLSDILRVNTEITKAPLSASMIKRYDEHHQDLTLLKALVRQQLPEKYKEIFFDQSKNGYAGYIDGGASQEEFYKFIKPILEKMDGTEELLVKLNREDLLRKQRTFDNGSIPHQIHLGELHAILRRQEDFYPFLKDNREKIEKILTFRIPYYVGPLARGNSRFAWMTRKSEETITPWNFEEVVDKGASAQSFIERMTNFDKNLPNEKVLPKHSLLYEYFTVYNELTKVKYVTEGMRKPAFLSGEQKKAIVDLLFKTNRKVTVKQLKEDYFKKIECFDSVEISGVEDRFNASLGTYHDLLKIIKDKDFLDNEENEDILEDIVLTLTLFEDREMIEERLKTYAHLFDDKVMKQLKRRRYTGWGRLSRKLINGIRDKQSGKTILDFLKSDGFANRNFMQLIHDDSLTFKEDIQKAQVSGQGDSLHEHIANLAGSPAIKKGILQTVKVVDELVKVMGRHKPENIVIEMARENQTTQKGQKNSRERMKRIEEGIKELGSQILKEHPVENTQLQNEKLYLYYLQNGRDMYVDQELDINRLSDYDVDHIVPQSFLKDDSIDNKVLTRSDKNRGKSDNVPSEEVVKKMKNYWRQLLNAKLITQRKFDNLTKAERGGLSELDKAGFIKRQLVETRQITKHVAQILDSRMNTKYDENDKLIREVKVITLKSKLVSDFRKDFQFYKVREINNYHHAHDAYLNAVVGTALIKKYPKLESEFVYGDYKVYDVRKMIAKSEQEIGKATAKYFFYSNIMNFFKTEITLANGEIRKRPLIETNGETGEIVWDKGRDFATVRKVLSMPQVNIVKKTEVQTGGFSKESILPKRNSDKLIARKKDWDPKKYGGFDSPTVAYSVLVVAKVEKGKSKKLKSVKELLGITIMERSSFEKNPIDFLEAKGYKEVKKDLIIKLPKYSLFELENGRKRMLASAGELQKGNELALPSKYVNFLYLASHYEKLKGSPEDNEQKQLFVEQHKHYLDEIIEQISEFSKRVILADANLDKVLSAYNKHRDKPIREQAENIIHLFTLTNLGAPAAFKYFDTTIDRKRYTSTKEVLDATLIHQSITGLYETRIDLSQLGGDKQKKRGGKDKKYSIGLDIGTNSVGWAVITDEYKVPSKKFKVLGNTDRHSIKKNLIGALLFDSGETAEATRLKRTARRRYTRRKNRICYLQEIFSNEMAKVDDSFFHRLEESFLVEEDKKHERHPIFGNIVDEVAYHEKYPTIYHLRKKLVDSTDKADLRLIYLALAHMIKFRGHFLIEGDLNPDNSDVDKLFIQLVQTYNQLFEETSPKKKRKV | – | about 35% | highest genome editing efficiency | over 25% | clear genome editing in the presence of WNV protease
